Reference: paper PMC8563704, “Gain-of-Function Properties of a Dynamin 2 Mutant Implicated in Charcot-Marie-Tooth Disease” (Frontiers in Cellular Neuroscience, 2021)

B1: DNM2^WT-EGFP (enzyme, rat, UniProt P39052-1 1-870, looked up)
chain: MGNRGMEELIPLVNKLQDAFSSIGQSCHLDLPQIAVVGGQSAGKSSVLENFVGRDFLPRGSGIVTRRPLILQLIFSKTEYAEFLHCKSKKFTDFDEVRQEIEAETDRVTGTNKGISPVPINLRVYSPHVLNLTLIDLPGITKVPVGDQPPDIEYQIKDMILQFISRESSLILAVTPANMDLANSDALKLAKEVDPQGLRTIGVITKLDLMDEGTDARDVLENKLLPLRRGYIGVVNRSQKDIEGRKDIRAALAAERKFFLSHPAYRHMADRMGTPHLQKTLNQQLTNHIRESLPTLRSKLQSQLLSLEKEVEEYKNFRPDDPTRKTKALLQMVQQFGVDFEKRIEGSGDQVDTLELSGGARINRIFHERFPFELVKMEFDEKDLRREISYAIKNIHGVRTGLFTPDLAFEAIVKKQVVKLKEPCLKCVDLVIQELISTVRQCTSKLSSYPRLREETERIVTTYIREREGRTKDQILLLIDIEQSYINTNHEDFIGFANAQQRSTQLNKKRAIPNQGEILVIRRGWLTINNISLMKGGSKEYWFVLTAESLSWYKDEEEKEKKYMLPLDNLKIRDVEKGFMSNKHVFAIFNTEQRNVYKDLRQIELACDSQEDVDSWKASFLRAGVYPEKDQAENEDGAQENTFSMDPQLERQVETIRNLVDSYVAIINKSIRDLMPKTIMHLMINNTKAFIHHELLAYLYSSADQSSLMEESAEQAQRRDDMLRMYHALKEALNIIGDISTSTVSTPVPPPVDDTWLQNTSSHSPTPQRRPVSSVHPPGRPPAVRGPTPGPPLIPMPVGATSSFSAPPIPSRPGPQNVFANNDPFSAPPQIPSRPARIPPGIPPGVPSRRAPAAPSRPTIIRPAEPSLLD
notes: dynamin 2, rat, isoform 1 (ba, IIBA), UniProtKB P39052-1; The template cDNAs carried C-terminal His6 tags; also called EGFP-tagged DNM2^WT; source: expressed in U2OS cells (brightness analysis); NIH-3T3 cells (FLIM-FRET); not shown: EGFP, C-terminal, kept
B2: DNM2^A618T-EGFP (enzyme, rat, UniProt P39052-1 1-870, looked up)
chain: MGNRGMEELIPLVNKLQDAFSSIGQSCHLDLPQIAVVGGQSAGKSSVLENFVGRDFLPRGSGIVTRRPLILQLIFSKTEYAEFLHCKSKKFTDFDEVRQEIEAETDRVTGTNKGISPVPINLRVYSPHVLNLTLIDLPGITKVPVGDQPPDIEYQIKDMILQFISRESSLILAVTPANMDLANSDALKLAKEVDPQGLRTIGVITKLDLMDEGTDARDVLENKLLPLRRGYIGVVNRSQKDIEGRKDIRAALAAERKFFLSHPAYRHMADRMGTPHLQKTLNQQLTNHIRESLPTLRSKLQSQLLSLEKEVEEYKNFRPDDPTRKTKALLQMVQQFGVDFEKRIEGSGDQVDTLELSGGARINRIFHERFPFELVKMEFDEKDLRREISYAIKNIHGVRTGLFTPDLAFEAIVKKQVVKLKEPCLKCVDLVIQELISTVRQCTSKLSSYPRLREETERIVTTYIREREGRTKDQILLLIDIEQSYINTNHEDFIGFANAQQRSTQLNKKRAIPNQGEILVIRRGWLTINNISLMKGGSKEYWFVLTAESLSWYKDEEEKEKKYMLPLDNLKIRDVEKGFMSNKHVFAIFNTEQRNVYKDLRQIELACDSQEDVDSWKTSFLRAGVYPEKDQAENEDGAQENTFSMDPQLERQVETIRNLVDSYVAIINKSIRDLMPKTIMHLMINNTKAFIHHELLAYLYSSADQSSLMEESAEQAQRRDDMLRMYHALKEALNIIGDISTSTVSTPVPPPVDDTWLQNTSSHSPTPQRRPVSSVHPPGRPPAVRGPTPGPPLIPMPVGATSSFSAPPIPSRPGPQNVFANNDPFSAPPQIPSRPARIPPGIPPGVPSRRAPAAPSRPTIIRPAEPSLLD
notes: dynamin 2, rat, isoform 1 (ba, IIBA), UniProtKB P39052-1, with the CNM-linked mutation A618T; The template cDNAs carried C-terminal His6 tags; also called EGFP-tagged DNM2^A618T; source: expressed in U2OS cells; not shown: EGFP, C-terminal, kept
B3: DNM2^K562E-EGFP (enzyme, rat, UniProt P39052-1 1-870, looked up)
chain: MGNRGMEELIPLVNKLQDAFSSIGQSCHLDLPQIAVVGGQSAGKSSVLENFVGRDFLPRGSGIVTRRPLILQLIFSKTEYAEFLHCKSKKFTDFDEVRQEIEAETDRVTGTNKGISPVPINLRVYSPHVLNLTLIDLPGITKVPVGDQPPDIEYQIKDMILQFISRESSLILAVTPANMDLANSDALKLAKEVDPQGLRTIGVITKLDLMDEGTDARDVLENKLLPLRRGYIGVVNRSQKDIEGRKDIRAALAAERKFFLSHPAYRHMADRMGTPHLQKTLNQQLTNHIRESLPTLRSKLQSQLLSLEKEVEEYKNFRPDDPTRKTKALLQMVQQFGVDFEKRIEGSGDQVDTLELSGGARINRIFHERFPFELVKMEFDEKDLRREISYAIKNIHGVRTGLFTPDLAFEAIVKKQVVKLKEPCLKCVDLVIQELISTVRQCTSKLSSYPRLREETERIVTTYIREREGRTKDQILLLIDIEQSYINTNHEDFIGFANAQQRSTQLNKKRAIPNQGEILVIRRGWLTINNISLMKGGSKEYWFVLTAESLSWYKDEEEKEKEYMLPLDNLKIRDVEKGFMSNKHVFAIFNTEQRNVYKDLRQIELACDSQEDVDSWKASFLRAGVYPEKDQAENEDGAQENTFSMDPQLERQVETIRNLVDSYVAIINKSIRDLMPKTIMHLMINNTKAFIHHELLAYLYSSADQSSLMEESAEQAQRRDDMLRMYHALKEALNIIGDISTSTVSTPVPPPVDDTWLQNTSSHSPTPQRRPVSSVHPPGRPPAVRGPTPGPPLIPMPVGATSSFSAPPIPSRPGPQNVFANNDPFSAPPQIPSRPARIPPGIPPGVPSRRAPAAPSRPTIIRPAEPSLLD
notes: dynamin 2, rat, isoform 1 (ba, IIBA), UniProtKB P39052-1, with the CMT-linked mutation K562E; The template cDNAs carried C-terminal His6 tags; also called EGFP-tagged DNM2^K562E; source: expressed in U2OS cells; not shown: EGFP, C-terminal, kept
B4: DNM2^ΔDEE-EGFP (enzyme, rat, UniProt P39052-1 1-870, looked up)
chain: MGNRGMEELIPLVNKLQDAFSSIGQSCHLDLPQIAVVGGQSAGKSSVLENFVGRDFLPRGSGIVTRRPLILQLIFSKTEYAEFLHCKSKKFTDFDEVRQEIEAETDRVTGTNKGISPVPINLRVYSPHVLNLTLIDLPGITKVPVGDQPPDIEYQIKDMILQFISRESSLILAVTPANMDLANSDALKLAKEVDPQGLRTIGVITKLDLMDEGTDARDVLENKLLPLRRGYIGVVNRSQKDIEGRKDIRAALAAERKFFLSHPAYRHMADRMGTPHLQKTLNQQLTNHIRESLPTLRSKLQSQLLSLEKEVEEYKNFRPDDPTRKTKALLQMVQQFGVDFEKRIEGSGDQVDTLELSGGARINRIFHERFPFELVKMEFDEKDLRREISYAIKNIHGVRTGLFTPDLAFEAIVKKQVVKLKEPCLKCVDLVIQELISTVRQCTSKLSSYPRLREETERIVTTYIREREGRTKDQILLLIDIEQSYINTNHEDFIGFANAQQRSTQLNKKRAIPNQGEILVIRRGWLTINNISLMKGGSKEYWFVLTAESLSWYKEKEKKYMLPLDNLKIRDVEKGFMSNKHVFAIFNTEQRNVYKDLRQIELACDSQEDVDSWKASFLRAGVYPEKDQAENEDGAQENTFSMDPQLERQVETIRNLVDSYVAIINKSIRDLMPKTIMHLMINNTKAFIHHELLAYLYSSADQSSLMEESAEQAQRRDDMLRMYHALKEALNIIGDISTSTVSTPVPPPVDDTWLQNTSSHSPTPQRRPVSSVHPPGRPPAVRGPTPGPPLIPMPVGATSSFSAPPIPSRPGPQNVFANNDPFSAPPQIPSRPARIPPGIPPGVPSRRAPAAPSRPTIIRPAEPSLLD
notes: dynamin 2, rat, isoform 1 (ba, IIBA), UniProtKB P39052-1, with the CMT-linked deletion of residues 555DEE557; Deletion introduced into the EGFP-tagged DNM2^WT template; also called EGFP-tagged DNM2^Δ ^DEE; source: expressed in U2OS cells (brightness analysis); NIH-3T3 cells (FLIM-FRET); not shown: EGFP, C-terminal, kept

Target: the molecule itself
Test: fluorescence fluctuation spectroscopy (brightness analysis); EGFP-tagged dynamins in the cytosol of living U2OS cells, as a function of concentration; two-photon excitation at 1,000 nm; brightness normalised to monomeric EGFP
For B1, the “stoichiometry N” value was ~4.
B2 was tested, and the “stoichiometry N” value was 20 to 24.
B3 was tested, and the “stoichiometry N” value was ~4.
For B4, the “stoichiometry N” value was ~4.
